Experimental data from PMC5122770, “Homodimerization of the Lymph Vessel Endothelial Receptor LYVE-1 through a Redox-labile Disulfide Is Critical for Hyaluronan Binding in Lymphatic Endothelium*^([image sbox.jpg])” (The Journal of Biological Chemistry, 2016).

How the values were obtained:
[1] = target: the molecule itself; assay: non-reducing SDS-PAGE with Western blot; CHO cell-derived soluble protein dissolved in LDS sample buffer with NEM; non-reducing
[2] = target: the molecule itself; assay: non-reducing SDS-PAGE with Western blot; mouse liver and lung tissue, minced and lysed with 5 mM NEM; non-reducing
[3] = target: the molecule itself; assay: non-reducing SDS-PAGE with Western blot; freshly resected mouse ear skin and lymph node, minced and lysed with 5 mM NEM; non-reducing
[4] = target: the molecule itself; assay: non-reducing SDS-PAGE with Western blot; whole cell lysate of primary HDLEC lysed without NEM; non-reducing; polyclonal LYVE-1 antibody
[5] = target: the molecule itself; assay: non-reducing SDS-PAGE with Western blot; cells lysed in LDS sample buffer with 5 mM NEM; non-reducing; polyclonal LYVE-1 antibody, densitometry (Licor Odyssey)

B1: hLYVE-1 Δ238 His10 (soluble full ectodomain, wild type) (domain or fragment, human, UniProt Q9Y5Y7 20-238, looked up)
chain: LVQGSLRAEELSIQVSCRIMGITLVSKKANQQLNFTEAKEACRLLGLSLAGKDQVETALKASFETCSYGWVGDGFVVISRISPNPKCGKNGVGVLIWKVPVSRQFAAYCYNSSDTWTNSCIPEIITTKDPIFNTQTATQTTEFIVSDSTYSVASPYSTIPAPTTTPPAPASTSIPRRKKLICVTEVFMETSTMSTETEPFVENKAAFKNEAAGFGGVPT
notes: signal peptide in the construct (forward primer begins 14 nt before the start ATG); LYVE-1, human, full-length extracellular domain terminating after residue number 238; secreted from CHO cells; Recovered as a mixture of monomers and disulfide-linked dimers; the homodimer was separated by multiple rounds of size exclusion chromatography; also called soluble hLYVE-1 ectodomain; WT LYVE-1 His10; …
Q: Does B1 bind [1]?
A: Result: binds

B2: mouse LYVE-1 (native receptor in mouse tissues) (receptor, mouse (endogenous in mouse tissues), UniProt Q8BHC0 24-318, looked up)
chain: ADLVQDLSISTCRIMGVALVGRNKNPQMNFTEANEACKMLGLTLASRDQVESAQKSGFETCSYGWVGEQFSVIPRIFSNPRCGKNGKGVLIWNAPSSQKFKAYCHNSSDTWVNSCIPEIVTTFYPVLDTQTPATEFSVSSSAYLASSPDSTTPVSATTRAPPLTSMARKTKKICITEVYTEPITMATETEAFVASGAAFKNEAAGFGGVPTALLVLALLFFGAAAVLAVCYVKRYVKAFPFTTKNQQKEMIETKVVKEEKADDVNANEESKKTIKNPEEAKSPPKTTVRCLEAEV
notes: LYVE-1, mouse, endogenous in tissue lysates; source: endogenous, lysates of freshly resected mouse ear skin, lymph node, liver and lung
Q: What does the source list for B2?
A: homodimer:monomer ratio [2]: ~2 homodimer:monomer; stoichiometry N [3]: 2

B3: LYVE-1 (native receptor in primary human dermal lymphatic endothelial cells) (receptor, human (endogenous in HDLEC), UniProt Q9Y5Y7 20-322, looked up)
chain: LVQGSLRAEELSIQVSCRIMGITLVSKKANQQLNFTEAKEACRLLGLSLAGKDQVETALKASFETCSYGWVGDGFVVISRISPNPKCGKNGVGVLIWKVPVSRQFAAYCYNSSDTWTNSCIPEIITTKDPIFNTQTATQTTEFIVSDSTYSVASPYSTIPAPTTTPPAPASTSIPRRKKLICVTEVFMETSTMSTETEPFVENKAAFKNEAAGFGGVPTALLVLALLFFGAAAGLGFCYVKRYVKAFPFTNKNQQKEMIETKVVKEEKANDSNPNEESKKTDKNPEESKSPSKTTVRCLEAEV
notes: LYVE-1, human, endogenous receptor of primary human dermal lymphatic endothelial cells; glycosylated; also called lymphatic vessel endothelial receptor LYVE-1; hLYVE-1; source: endogenous, primary HDLEC whole cell lysate
Q: How did the “stoichiometry N” value [4] turn out when B3 was run?
A: Its value is 2.

B4: full-length wild-type hLYVE-1 (in HEK 293T cells) (receptor, human, UniProt Q9Y5Y7 20-322, looked up)
chain: B3 chain
notes: also called wild-type receptor; source: HEK 293T, transfected, in lysate
Q: For B4, which “dimer:monomer ratio” value [5] is on record?
A: The value was 2 dimer:monomer.
